Measurements: patent US20150203556A1 (UAB RESEARCH FOUNDATION, published 2015)

Assays:
[1] = target: T1, IL-20/IL-20R2 binary complex (human, UniProt Q9NYY1 25-176; Q6UXL0 30-230); assay: SPR co-injection: IL-20 fixed at 250 nM with IL-22R1 (1000-7.81 nM) over amine coupled IL-20R2; 250 nM IL-20 sensorgram subtracted; 1:1 fit, apparent value
T1 construct: also called 20 + 20R2; IL-20+soluble IL-20R2
T1 chain 1: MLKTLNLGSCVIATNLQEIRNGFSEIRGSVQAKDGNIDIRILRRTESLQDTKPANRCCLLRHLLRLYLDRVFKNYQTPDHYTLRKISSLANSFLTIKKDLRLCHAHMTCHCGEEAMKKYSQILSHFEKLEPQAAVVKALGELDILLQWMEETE
T1 chain 2: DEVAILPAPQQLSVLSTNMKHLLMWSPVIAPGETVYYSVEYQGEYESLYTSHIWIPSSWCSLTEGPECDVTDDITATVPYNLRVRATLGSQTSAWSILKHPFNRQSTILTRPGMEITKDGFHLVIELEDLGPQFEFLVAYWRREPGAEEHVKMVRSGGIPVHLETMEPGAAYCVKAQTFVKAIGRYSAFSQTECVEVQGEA
Procedure: (§1) FIGS. 12A-12H are graphs showing IL19/IL-20 receptor interactions and complex stability. SPR sensorgrams, data fits (black lines), KD values, and residual errors obtained for complexes described at the top of each panel. Panels are labeled as injected soluble proteins, followed by a semicolon (:), then the protein coupled to chip surface, IL-20R1 or IL-20R2. FIGS. 12A and 12B show injection of IL-19 and IL-20 (max conc.=10 μM, 2 fold diluted to 0.625 μM) over IL-20R1. FIGS. 12C and 12D show injection of IL-19 (max conc.=500 nM, 2-fold diluted to 3.91 nM) or IL-20 (max conc.=2000 nM, 2-fold diluted to 62.5 nM) over IL-20R2. FIGS. 12E-12H show IL-19 and IL-20 (fixed at 250 nM) mixed with different concentrations of IL-20R1, or IL-22R1, (max conc.=1000 nM, 2-fold diluted to 7.81 nM) and injected over IL-20R2. To estimate R1 chain affinity/complex stability, the contribution of the ligand was removed by using the 250 nM IL-19, or IL-20, sensorgram as the blank subtraction. All sensorgrams were fit to 1:1 binding models.
(§2) Surface Plasmon Resonance Experiments SPR experiments were performed on Biacore T-100, and T-200, (GE healthcare, Waukesha, Wis.) systems. […] Soluble proteins were injected for 75-90 seconds (30 uL/min) over the surfaces, and the dissociation phase was followed for 75-120 seconds depending on the stability of the complex being analyzed. […]

[2] = target: T1, IL-20/IL-20R2 binary complex; assay: SPR co-injection: IL-20 fixed at 250 nM with IL-22R1 (1000-7.81 nM) over amine coupled IL-20R2; 250 nM IL-20 sensorgram subtracted; 1:1 fit, apparent KD (KDapp)
Procedure: as §1, §2

[3] = target: T2, IL-19 bound on IL-20R2-fc (IL-19/IL-20R2-fc binary complex) (human, UniProt Q9UHD0 25-177); assay: SPR co-injection: IL-19 fixed at 250 nM with IL-20R1 (1000-7.81 nM) over IL-20R2-fc; 250 nM IL-19 sensorgram subtracted; 1:1 fit, apparent KD (KDapp)
Procedure: (§3) To estimate R1 chain affinity/complex stability, the contribution of the ligand was removed by using the 250 nM IL-19, or IL-20, sensorgram as the blank subtraction. All sensorgrams were fit to 1:1 binding models.
(§4) To estimate the stability of IL-20 (IL-20/IL-20R1/IL-20R2 and IL-20/IL-22R1/IL-20R2) and IL-19 (IL-19/IL-20R1/IL-20R2) ternary complexes (FIG. 1), IL-19, or IL-20, was co-injected with soluble IL-20R1 over a biacore chip coupled with IL-20R2. […] The same results, although with different KDapp values, were obtained by evaluating ternary complex stability by injecting soluble IL-20R2 and IL19, or IL-20, over biacore chip surfaces of IL-20R1 or IL-22R1 (FIG. 13).
(§5) Surface Plasmon Resonance Experiments SPR experiments were performed on Biacore T-100, and T-200, (GE healthcare, Waukesha, Wis.) systems. Soluble IL-20R2 was amine coupled (100-130 RU) to CM5 research grade biacore chips in 10 mM sodium acetate, pH 5.0. IL-20R1-FC and IL-20R2-FC were coupled (60-120 RU) to CM5 chips using an anti-FC Ab coupling kit using the manufacturer's instructions (GE healthcare, Waukesha, Wis.). […] Soluble proteins were injected for 75-90 seconds (30 uL/min) over the surfaces, and the dissociation phase was followed for 75-120 seconds depending on the stability of the complex being analyzed. […]

[4] = target: T3, IL-20 bound on IL-20R2-fc (IL-20/IL-20R2-fc binary complex) (human, UniProt Q9NYY1 25-176); assay: SPR co-injection: IL-20 fixed at 250 nM with IL-20R1 (1000-7.81 nM) over IL-20R2-fc; 250 nM IL-20 sensorgram subtracted; 1:1 fit, apparent KD (KDapp)
Procedure: as §3, §4, §5

[5] = target: T2, IL-19 bound on IL-20R2-fc …; assay: SPR co-injection: IL-19 fixed at 250 nM with IL-20R1 (1000-7.81 nM) over IL-20R2-fc; 250 nM IL-19 sensorgram subtracted; 1:1 fit, apparent value
Procedure: as §1, §2

[6] = target: T3, IL-20 bound on IL-20R2-fc …; assay: SPR co-injection: IL-20 fixed at 250 nM with IL-20R1 (1000-7.81 nM) over IL-20R2-fc; 250 nM IL-20 sensorgram subtracted; 1:1 fit, apparent value
Procedure: as §1, §2

IL-20 [7] = target: T4, IL-20 (human, UniProt Q9NYY1 25-176); assay: SPR, site KD as listed in Table 5
T4 construct: The crystal model holds residues 24-176; also called Interleukin-20; IL-20b
T4 sequence: T1 chain 1

IL-20 [8] = target: T4, IL-20; assay: SPR (Biacore), IL-20 (2000-62.5 nM) over IL-20R2-fc captured by anti-FC Ab, 1:1 fit
IL-19 = target: T5, IL-19 (human, UniProt Q9UHD0 25-177); assay: SPR (Biacore), IL-19 (500-3.91 nM) over IL-20R2-fc captured by anti-FC Ab, 1:1 fit
T5 construct: also called Interleukin-19; IL-19a
T5 sequence: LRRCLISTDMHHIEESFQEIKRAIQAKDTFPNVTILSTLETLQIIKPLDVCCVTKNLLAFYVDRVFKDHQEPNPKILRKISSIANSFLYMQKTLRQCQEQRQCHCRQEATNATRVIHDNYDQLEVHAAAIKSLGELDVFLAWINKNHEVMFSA
Procedure: as §1, with “SPR” for “FIGS. 12A-12H are graphs showing IL19/IL-20 receptor interactions and complex stability. SPR”
as §5, with “Wis.). All binding experiments were performed in running buffer consisting of 10 mM Hepes, pH 7.4, 150 mM NaCl, 0.04% P20, and 0.1 mg/mL bovine serum albumin (Sigma, St. Louis, Mo.). No regeneration was performed between sample injections on IL-20R2 amine-coupled surfaces.” for “Wis.).”
IL-19/IL-20R2 and IL-20/IL-20R2 interactions were determined by SPR methods with IL-20R2 attached to a biacore chip by amine coupling, or as an IL-20R2-FC fusion protein.

IL-20 [9] = target: T4, IL-20; assay: SPR, IL-20 over IL-20R2 (FIG. 12D)
Procedure: as §1, §2

B1: IL-22R1 (sIL-22R1DDQ) (receptor)
chain: HAPEDPSDLLQHVKFQSSNFENILTWDSGPEGTPDTVYSIEYKTYGERDWVAKKGCQRITRKSCDLTVETGDLQELYYARVTAVSAGGRSATKMTDRFSSLQHTTLKPPDVTCISKVRSIQMIVHPTPTPIRAGDGHRLTLEDIFHDLFYHLELQVNRTYQMHLGGKQREYEFFGLTPDTEFLGTIMICVPTWAKESAPYMCRVKTLPDRT
With B1 the koff [1] was 0.0893 s⁻¹, the kon [1] was 65500 M⁻¹ s⁻¹ and the Kd [2] was 1.36 µM.

B2: soluble IL-20R1 (receptor)
chain: VPCVSGGLPKPANITFLSINMKNVLQWTPPEGLQGVKVTYTVQYFIYGQKKWLNKSECRNINRTYCDLSAETSDYEHQYYAKVKAIWGTKCSKWAESGRFYPFLETQIGPPEVALTTDEKSISVVLTAPEKWKRNPEDLPVSMQQIYSNLKYNVSVLNTKSNRTWSQCVTNHTLVLTWLEPNTLYCVHVESFVPGPPRRAQPSEKQCARTLKDQSS
B2 gave a Kd [3] of 3.12 µM, a Kd [4] of 0.319 µM and a koff [5] of 0.139 s⁻¹. The kon [5] was 44500 M⁻¹ s⁻¹, the koff [6] was 0.0171 s⁻¹ and the kon [6] was 53700 M⁻¹ s⁻¹.

B3: IL-20R2-FC (Fc fusion)
chain: DEVAILPAPQQLSVLSTNMKHLLMWSPVIAPGETVYYSVEYQGEYESLYTSHIWIPSSWCSLTEGPECDVTDDITATVPYNLRVRATLGSQTSAWSILKHPFNRQSTILTRPGMEITKDGFHLVIELEDLGPQFEFLVAYWRREPGAEEHVKMVRSGGIPVHLETMEPGAAYCVKAQTFVKAIGRYSAFSQTECVEVQGEAGSGGGGPSVFIFPPKIKDVLMISLSPIVTCVVVDVSEDDPDVQISWFVNNVEVHTAQTQTHREDYNSTLRVVSALPIQHQDWMSGKEFKCKVNNKDLPAPIERTISKPKGSVRAPQVYVLPPPEEEMTKKQVTLTCMVTDFMPEDIYVEWTNNGKTELNYKNTEPVLDSDGSYFMTSKLRVEKKNWVERNSYSCSVVHEGLHNHHTTKSFGGCGTPASGGLNDIFEAQKIEWHE
notes: also called IL-20-FC
With B3 the Kd (IL-20 [7]) was 0.687 µM, the Kd (IL-20 [8]) was 0.686 µM and the koff (IL-20 [8]) was 0.219 s⁻¹. The kon (IL-20 [8]) was 319000 M⁻¹ s⁻¹, the Kd (IL-19) was 0.105 µM and the koff (IL-19) was 0.0242 s⁻¹. For the same binder, the kon (IL-19) was 230000 M⁻¹ s⁻¹ and the Kd (IL-20 [9]) was 0.697 µM.
